Assay results as given in patent US20240376170A1 (BRIGHT PEAK THERAPEUTICS, published 2024).
Values belong to the binder of their own block, whether it stands above or below them. [ ]: non-standard residue; d: D form. Ygp = O-(8x polyethylene glycol-amino)-tyrosine (Tyr, amino-capped PEG8); Yn3 = O-(9x polyethylene glycol-azido)-tyrosine (Tyr, azide-capped PEG9); hSer = N[C@@H](CCO)C(=O)O; Nle = CCCC[C@H](N)C(=O)O

Target: T1, IL-2 receptor βγ complex (human, UniProt P14784 27-551; P31785 23-369)
T1 sequence (looked up) 1: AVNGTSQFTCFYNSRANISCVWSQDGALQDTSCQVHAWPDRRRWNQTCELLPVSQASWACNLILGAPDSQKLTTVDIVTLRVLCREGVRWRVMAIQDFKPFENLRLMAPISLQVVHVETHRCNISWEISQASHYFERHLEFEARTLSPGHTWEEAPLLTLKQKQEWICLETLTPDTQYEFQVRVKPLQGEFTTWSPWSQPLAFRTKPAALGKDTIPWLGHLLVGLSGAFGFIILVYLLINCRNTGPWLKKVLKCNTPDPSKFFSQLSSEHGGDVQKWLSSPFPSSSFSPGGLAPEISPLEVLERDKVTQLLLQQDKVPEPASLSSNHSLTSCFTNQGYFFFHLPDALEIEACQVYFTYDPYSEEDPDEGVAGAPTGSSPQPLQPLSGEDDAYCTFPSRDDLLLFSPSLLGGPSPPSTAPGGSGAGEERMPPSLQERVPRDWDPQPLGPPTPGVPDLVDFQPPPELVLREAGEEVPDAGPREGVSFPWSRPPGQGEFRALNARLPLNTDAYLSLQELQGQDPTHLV
T1 sequence (looked up) 2: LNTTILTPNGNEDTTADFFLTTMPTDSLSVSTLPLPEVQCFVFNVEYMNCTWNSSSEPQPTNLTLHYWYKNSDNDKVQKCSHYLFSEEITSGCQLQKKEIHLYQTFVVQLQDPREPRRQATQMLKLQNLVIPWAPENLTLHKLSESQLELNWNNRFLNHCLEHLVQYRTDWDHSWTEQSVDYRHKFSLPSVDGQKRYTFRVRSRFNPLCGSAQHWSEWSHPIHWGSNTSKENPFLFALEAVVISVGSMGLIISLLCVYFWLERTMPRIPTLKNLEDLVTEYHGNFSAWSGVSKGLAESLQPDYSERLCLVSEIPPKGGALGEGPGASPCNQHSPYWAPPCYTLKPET
Test: cell-based or functional assay

Average EC50, pSTAT5 Assay in NK cells: 6.9 nM
B1: CMP-310, Matriptase cleaved molecule (ligand)
chain: APTSSSTKKTQLQLEHLLLDLQKILNGINNYKNPKLTR[Nle]L[hSer][Yn3]KF[Ygp][Nle]PKKATELKHLQCLEEELKPLEEVL[hSer]LAQSKNFHLRPRDLISNINVIVLELKGSETTF[hSer]CEYADETATIVEFLNRWITFSQSIISTLT
modifications: also: m73 after matriptase cleavage: Lys23 side-chain branch (cleavable peptide) cut, remnant not given here

Average EC50, pSTAT5 Assay in NK cells: 0.548 nM
B2: CMP-311, uPa cleaved molecule (ligand)
chain: APTSSSTKKTQLQLEHLLLDLQKILNGINNYKNPKLTR[Nle]L[hSer][Yn3]KF[Ygp][Nle]PKKATELKHLQCLEEELKPLEEVL[hSer]LAQSKNFHLRPRDLISNINVIVLELKGSETTF[hSer]CEYADETATIVEFLNRWITFSQSIISTLT
modifications: also: m77 after uPa cleavage: Lys23 side-chain branch (cleavable peptide) cut, remnant not given here

Average EC50, pSTAT5 Assay in NK cells: 0.512 nM
B3: CMP-311, Matriptase cleaved molecule (ligand)
chain: APTSSSTKKTQLQLEHLLLDLQKILNGINNYKNPKLTR[Nle]L[hSer][Yn3]KF[Ygp][Nle]PKKATELKHLQCLEEELKPLEEVL[hSer]LAQSKNFHLRPRDLISNINVIVLELKGSETTF[hSer]CEYADETATIVEFLNRWITFSQSIISTLT
modifications: also: m77 after matriptase cleavage: Lys23 side-chain branch (cleavable peptide) cut, remnant not given here

Average EC50, pSTAT5 Assay in NK cells: 0.073 nM
B4: CMP-311, MMP2 cleaved molecule (ligand)
chain: APTSSSTKKTQLQLEHLLLDLQKILNGINNYKNPKLTR[Nle]L[hSer][Yn3]KF[Ygp][Nle]PKKATELKHLQCLEEELKPLEEVL[hSer]LAQSKNFHLRPRDLISNINVIVLELKGSETTF[hSer]CEYADETATIVEFLNRWITFSQSIISTLT
modifications: also: m77 after MMP2 cleavage: Lys23 side-chain branch (cleavable peptide) cut, remnant not given here

Average EC50, pSTAT5 Assay in NK cells: 4.07 nM
B5: CMP-310, MMP2 cleaved molecule (ligand)
chain: APTSSSTKKTQLQLEHLLLDLQKILNGINNYKNPKLTR[Nle]L[hSer][Yn3]KF[Ygp][Nle]PKKATELKHLQCLEEELKPLEEVL[hSer]LAQSKNFHLRPRDLISNINVIVLELKGSETTF[hSer]CEYADETATIVEFLNRWITFSQSIISTLT
modifications: also: m73 after MMP2 cleavage: Lys23 side-chain branch (cleavable peptide) cut, remnant not given here

Average EC50, pSTAT5 Assay in NK cells: 6.79 nM
B6: CMP-310, uPa cleaved molecule (ligand)
chain: APTSSSTKKTQLQLEHLLLDLQKILNGINNYKNPKLTR[Nle]L[hSer][Yn3]KF[Ygp][Nle]PKKATELKHLQCLEEELKPLEEVL[hSer]LAQSKNFHLRPRDLISNINVIVLELKGSETTF[hSer]CEYADETATIVEFLNRWITFSQSIISTLT
modifications: also: m73 after uPa cleavage: Lys23 side-chain branch (cleavable peptide) cut, remnant not given here

Average EC50, pSTAT5 Assay in NK cells: 0.035 nM
B7: CMP-313, MMP2 cleaved molecule (ligand)
chain: APTSSSTKKTQLQLEHLLLDLQKILNGINNYKNPKLTR[Nle]L[hSer][Yn3]KF[Ygp][Nle]PKKATELKHLQCLEEELKPLEEVL[hSer]LAQSKNFHLRPRDLISNINVIVLELKGSETTF[hSer]CEYADETATIVEFLNRWITFSQSIISTLT
modifications: also: m81 after MMP2 cleavage: Lys23 side-chain branch (cleavable peptide) cut, remnant not given here
